Substrate: O=S(O)O
Test: purified protein
Assay type: biochemical, Homo sapiens
Conditions: pH 8.0, cytochrome c as electron acceptor, no added chloride

B1: wt hSO (human sulfite oxidase) (Homo sapiens) (protein)
chain: ESTHIYTKEEVSSHTSPETGIWVTLGSEVFDVTEFVDLHPGGPSKLMLAAGGPLEPFWALYAVHNQSHVRELLAQYKIGELNPEDKVAPTVETSDPYADDPVRHPALKVNSQRPFNAEPPPELLTENYITPNPIFFTRNHLPVPNLDPDTYRLHVVGAPGGQSLSLSLDDLHNFPRYEITVTLQCAGNRRSEMTQVKEVKGLEWRTGAISTARWAGARLCDVLAQAGHQLCETEAHVCFEGLDSDPTGTAYGASIPLARAMDPEAEVLLAYEMNGQPLPRDHGFPVRVVVPGVVGARHVKWLGRVSVQPEESYSHWQRRDYKGFSPSVDWETVDFDSAPSIQELPVQSAITEPRDGETVESGEVTIKGYAWSGGGRAVIRVDVSLDGGLTWQVAKLDGEEQRPRKAWAWRLWQLKAPVPAGQKELNIVCKAVDDGYNVQPDTVAPIWNLRGVLSNAWHRVHVYVSP
kcat: 27 ± 2 s⁻¹

From PMC2890295 (Biochemistry, 2010)
